Source: US20230322924A1 (Janssen / Centocor, published 2023)

Assays:
[1] = molecular target: T1, Human CD33 ECD-HSA (human); assay: ProteOn SPR, mAb captured on anti-human Fc, antigen as analyte
T1 construct: CD33 ECD fused at the C-terminus to monomeric HSA (C58S) and a six-histidine tag; also called C33W2; huCD33 ECD-HSA
Method: (§1) The panel of mAbs was then further characterized for full affinity analysis as well as epitope binning. The binding of anti-CD33 mAbs to recombinant human CD33 ECD-HSA (C33W2) and cyno CD33 ECD-HSA (C33W1) was measured by ProteOn SPR (Bio-Rad). […] Different mAbs were captured on the anti-human Fc IgG surface at 0.25 or 0.5 μg/ml (160-300 RU) in vertical ligand orientation, with the 6th ligand channel as no ligand surface control. Human and cyno CD33-HSA proteins at 0.3 μM concentration in 3-fold dilution series of 5 concentrations flew in as analyte to bind to captured mAbs in the horizontal orientation. A buffer sample was also injected in the 6th channel to monitor the dissociation of captured mAb and baseline stability. […] The raw biding data were processed by double referencing after subtracting the response data from: 1) the inter-spot to correct for the non-specific interactions between the Ag and the empty chip surface; 2) the buffer channel to correct for baseline drifting due to the dissociation of captured mAb surface over time. The processed data at all antigen concentrations for each mAb were globally fit to a 1:1 simple Langmuir binding model to extract estimates of the kinetic (kₒₙ, koff) and affinity (Kd) constants.

[2] = molecular target: T2, Cyno CD33 ECD-HSA (cynomolgus monkey); assay: as above
T2 construct: Cyno CD33 ECD fused to HSA and a six-histidine tag; also called C33W1
Method: as §1

[3] = molecular target: T3, Human CD33 full length (human, UniProt P20138 18-364); assay: flow cytometry on HEK293F cells expressing human CD33
T3 construct: also called huCD33
Method: (§2) The purified antibodies were assessed for binding to stably transfected HEK293F cells expressing human CD33 or cyno CD33 (generation described above) along with the parental HEK293F as negative control. Cells were harvested from tissue culture flasks using non-enzymatic dissociation buffer (Thermo Scientific). The flasks were rinsed twice with PBS and dissociation buffer was added to the flask, and the flask was incubated for 10 minutes at 37° C. until the cells became non-adherent. The cells were centrifuged at 300 g for 5 minutes and resuspended at 1.0×10⁶ cells/ml in staining buffer (Becton Dickinson; Franklin Lakes, NJ). 50,000 cells/well of each cell type was plated in 50 μl of staining buffer in round bottom plates (Becton Dickinson). […] 100 μl staining buffer was added to all wells of each plate, the plates were spun at 300 g for 5 min, the buffer was removed, 200 μl staining buffer was added to all wells of each plate, the plates were spun at 300 g for 5 min, and the buffer was removed. 50 μl of 2 μg/ml of Goat-anti-human Fc AF647 secondary antibody (Jackson Immunoresearch; West Grove, PA) was added to all wells of the plates, and the plates were incubated for 30 min at 4° C. 100 μl staining buffer was added to all wells of the plates, the plates were spun at 300 g for 5 min, and the buffer was removed. 200 μl running buffer (running buffer is Staining buffer, 1 mM EDTA, 0.1% Pluronic Acid) was added to all wells of the plates, the plates were spun at 300 g for 5 min, and the buffer was removed. 30 μl running buffer containing Sytox Green live/dead dye (ThermoFisher) was added to all wells with cells and the plates were read on an iQue IntelliCyt flow cytometer. Cells were gated on forward vs. side scatter to eliminate debris, then on singlets and then on live cells which excluded the Sytox stain. Antibody binding was assessed by the mean fluorescence intensity in the AF647 channel.
(§3) The OmniMouse panel (8 mAbs total) was generated separately and characterized further for binding to cells.

[4] = molecular target: T4, Cyno CD33 full length (cynomolgus monkey); assay: flow cytometry on HEK293F cells expressing cyno CD33
T4 construct: also called cyCD33
Method: as §2, §3

[5] = molecular target: T5, human PSMA on cells (LNCaP) (human, UniProt Q04609 1-750); assay: flow cytometry cell binding assay on LNCaP cells
T5 construct: whole, on cells; also called LNCaP cells
Method: PSMA×CD3 bispecific antibodies were tested for binding to PSMA positive cell line, LNCAP, to PSMA negative cell line, PC3. To assess the binding capabilities of the PSMA bispecific antibodies, the cell-binding assay was utilized (described previously). Bispecific antibodies were normalized for protein concentration and then incubated with the same number of cells expressing either human or cyno PSMA. The MFI at each concentration was collected by flow cytometry and plotted as a function of concentration. Data was transformed via log 10 and then plotted. Nonlinear regression of binding curves was done to determine EC50s.

[6] = molecular target: T6, cynomolgus CD3e/d complex on cells transiently transfected with pcDNA3.1-CD3e/d-cyn-mix (cynomolgus, UniProt Q95LI5 22-198; Q95LI8 22-171); assay: CELISA, hybridoma supernatant
T6 construct: Tagged screening constructs
Method: (§4) Hybridoma supernatants from fusions BLW (with magnetic bead depletion of lymphocytes) and BLX (without magnetic bead depletion of lymphocytes) were analyzed a) by a cell-based ELISA (CELISA) on cells transiently transfected with human and cynomolgus cDNA cloned into screening vectors: pOPT-CD3e-hum-epsilon-TCE.OMT+pOPT-CD3d-hum-delta.OMT, 1:1 (pOPT-CD3e/d-hum-mix) and pcDNA3.1-CD3e-cyn-[…]+pcDNA3.1-CD3d-cyn-delta, 1:1 (pcDNA3.1-CD3e/d-cyn-mix). For CELISA negative control, non-transfected mammalian cells were incubated with hybridoma supernatants and detected with the secondary Bethyl antibody. For a CELISA transfection control, mammalian cells, transfected with the constructs described above, were detected with anti-tag antibody.

[7] = molecular target: T7, human CD3e/d complex on cells transiently transfected with pOPT-CD3e/d-hum-mix (human, UniProt P07766 23-126; P04234 22-171); assay: CELISA, hybridoma supernatant
T7 construct: Tagged screening constructs
Method: as §4

[8] = molecular target: T8, human CD3 on human T cells (human, UniProt P07766 23-207); assay: flow cytometry, Jurkat CD3+ (E6-1)
T8 construct: Native TCR-CD3 complex on cells; also called primary human T cells; human pan T cells
T8 sequence (P07766 23-207 limits assumed): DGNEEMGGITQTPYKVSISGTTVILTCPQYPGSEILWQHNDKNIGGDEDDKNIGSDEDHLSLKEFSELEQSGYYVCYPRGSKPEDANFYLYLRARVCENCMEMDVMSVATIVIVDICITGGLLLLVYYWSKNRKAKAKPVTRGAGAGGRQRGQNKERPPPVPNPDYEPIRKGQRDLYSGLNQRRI

T3 sequence (P20138 18-364 limits assumed): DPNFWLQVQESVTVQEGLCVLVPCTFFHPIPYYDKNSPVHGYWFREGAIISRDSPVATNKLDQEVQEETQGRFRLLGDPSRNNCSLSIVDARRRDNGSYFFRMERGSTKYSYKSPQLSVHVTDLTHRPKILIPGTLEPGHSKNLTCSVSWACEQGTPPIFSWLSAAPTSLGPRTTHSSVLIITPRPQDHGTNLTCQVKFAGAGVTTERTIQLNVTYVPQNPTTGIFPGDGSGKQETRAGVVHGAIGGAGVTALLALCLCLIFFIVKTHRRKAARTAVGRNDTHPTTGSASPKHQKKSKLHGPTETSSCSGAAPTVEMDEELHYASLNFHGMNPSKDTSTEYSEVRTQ
T6 sequence (Q95LI5 22-198 limits assumed, chain 1 of 2): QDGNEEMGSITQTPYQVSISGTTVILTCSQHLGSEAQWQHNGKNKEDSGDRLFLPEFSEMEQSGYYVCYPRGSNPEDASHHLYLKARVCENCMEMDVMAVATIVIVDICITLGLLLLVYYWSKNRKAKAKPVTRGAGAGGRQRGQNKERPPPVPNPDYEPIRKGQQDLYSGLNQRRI
T6 sequence (Q95LI8 22-171 limits assumed, chain 2 of 2): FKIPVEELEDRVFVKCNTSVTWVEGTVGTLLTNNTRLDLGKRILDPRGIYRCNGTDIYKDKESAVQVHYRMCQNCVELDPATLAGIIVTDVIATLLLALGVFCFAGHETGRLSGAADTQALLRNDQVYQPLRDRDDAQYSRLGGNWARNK
T7 sequence (P07766 23-126 limits assumed, chain 1 of 2): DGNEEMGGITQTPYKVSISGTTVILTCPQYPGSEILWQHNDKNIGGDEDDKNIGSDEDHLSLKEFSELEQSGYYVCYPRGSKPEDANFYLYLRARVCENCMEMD
T7 sequence (P04234 22-171 limits assumed, chain 2 of 2): as the sequence (Q95LI8 22-171 limits assumed, chain 2 of 2) above, with V5I, K15N, V20I, T32S, N33D, N34I, A64T, N74S, L83V, R141H counted along it
T5 sequence (Q04609 whole entry): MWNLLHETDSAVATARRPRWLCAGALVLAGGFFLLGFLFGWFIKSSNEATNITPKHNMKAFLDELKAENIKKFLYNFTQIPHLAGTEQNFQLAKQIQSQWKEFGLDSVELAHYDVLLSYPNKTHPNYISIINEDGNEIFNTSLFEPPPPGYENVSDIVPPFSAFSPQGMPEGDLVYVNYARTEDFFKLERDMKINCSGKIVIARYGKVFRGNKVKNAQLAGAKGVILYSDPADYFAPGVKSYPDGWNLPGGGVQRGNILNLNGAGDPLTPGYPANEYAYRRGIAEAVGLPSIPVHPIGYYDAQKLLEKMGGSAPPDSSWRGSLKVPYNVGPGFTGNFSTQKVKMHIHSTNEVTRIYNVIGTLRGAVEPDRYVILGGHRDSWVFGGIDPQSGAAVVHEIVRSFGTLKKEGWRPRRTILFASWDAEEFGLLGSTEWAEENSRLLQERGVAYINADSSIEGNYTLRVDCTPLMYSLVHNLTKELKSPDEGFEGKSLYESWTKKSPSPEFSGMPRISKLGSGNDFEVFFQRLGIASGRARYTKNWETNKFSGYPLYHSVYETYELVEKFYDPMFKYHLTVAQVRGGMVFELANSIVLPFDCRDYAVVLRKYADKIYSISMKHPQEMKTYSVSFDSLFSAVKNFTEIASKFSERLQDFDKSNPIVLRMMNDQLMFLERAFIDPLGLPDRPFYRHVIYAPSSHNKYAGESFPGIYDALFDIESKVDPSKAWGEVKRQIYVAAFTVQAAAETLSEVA

Row | Binder | % positive [6] | Rfu [6] | % positive [7] | Rfu [7] | % positive [8] | geomean [8] | further results
1 | C33B916 (antibody, V domains shown, OMNIMouse-derived anti-CD33 mAb; same V regions as C33B908; also called C33H256/C33L122; C33F554) VH: QVQLVESGGGVVQPGRSLRLSCATSGFTFSNYGMHWVRQAPGKGLEWVAVIWYVGSHKYYADSVKGRFTISRDNSKNTLYLQMNSLRAEDTAVYYCARDGSLCFDYWGQGTLVTVSS VL: SYELTQPPSVSVSPGQTANISCSGVTLGYNYAYWYQQKPGQSPILVISQDTQRPSGIPERFSGSNSGNTATLTISGTQAMDEAAYYCQAWDITTVLFGGGTKLTVL | – | – | – | – | – | – | Kd [1]: 0.655 nM; koff [1]: 0.000411 s⁻¹; kon [1]: 627000 M⁻¹ s⁻¹; Kd [2]: 0.852 nM; koff [2]: 0.000403 s⁻¹; kon [2]: 473000 M⁻¹ s⁻¹; MFI at 0 nM (background) [3]: 167 MFI; MFI at 0.6 nM [3]: 193000 MFI; MFI at 6 nM [3]: 404000 MFI; MFI at 60 nM [3]: 448000 MFI; MFI at 0 nM (background) [4]: 104 MFI; MFI at 0.6 nM [4]: 22800 MFI; MFI at 6 nM [4]: 33300 MFI; MFI at 60 nM [4]: 41000 MFI
2 | PS3B84 (bispecific antibody, human IgG4 S228P, kappa, lambda, F234A L235A, IgG4 PAA; also called PSMB344 x CD3B376) heavy 1: not shown light 1: not shown heavy 2: QVQLQQSGPRLVRPSQTLSLTCAISGDSVFNNNAAWSWIRQSPSRGLEWLGRTYYRSKWLYDYAVSVKSRITVNPDTSRNQFTLQLNSVTPEDTALYYCARGYSSSFDYWGQGTLVTVSSASTKGPSVFPLAPCSRSTSESTAALGCLVKDYFPEPVTVSWNSGALTSGVHTFPAVLQSSGLYSLSSVVTVPSSSLGTKTYTCNVDHKPSNTKVDKRVESKYGPPCPPCPAPEAAGGPSVFLFPPKPKDTLMISRTPEVTCVVVDVSQEDPEVQFNWYVDGVEVHNAKTKPREEQFNSTYRVVSVLTVLHQDWLNGKEYKCKVSNKGLPSSIEKTISKAKGQPREPQVYTLPPSQEEMTKNQVSLTCLVKGFYPSDIAVEWESNGQPENNYKTTPPVLDSDGSFLLYSKLTVDKSRWQEGNVFSCSVMHEALHNHYTQKSLSLSLGK light 2: QSALTQPASVSGSPGQSITISCTGTSSNIGTYKFVSWYQQHPDKAPKVLLYEVSKRPSGVSSRFSGSKSGNTASLTISGLQAEDQADYHCVSYAGSGTLLFGGGTKLTVLGQPKAAPSVTLFPPSSEELQANKATLVCLISDFYPGAVTVAWKADSSPVKAGVETTTPSKQSNNKYAASSYLSLTPEQWKSHRSYSCQVTHEGSTVEKTVAPTECS | – | – | – | – | – | – | binding result [5]: binds
3 | BLW-3B4 (antibody, V domains shown, OmniRat hybridoma supernatant: human V regions on rat constant regions; also called V regions cloned as CD3B313 (CD3H218/CD3L125)) VH: QVQLQQSGPGLVKPSQTLSLTCAISGDSVFNNNAAWSWIRQSPSRGLEWLGRTYYRSKWLYDYAVSVKSRITVNPDTSRNQFTLQLNSVTPEDTALYYCVRGYSSSFDYWGQGTLVTVSS VL: QSALTQPASVSGSPGQSITISCTGTSRDIGTYKFVSWYQQHPDKAPKVLLYEVSKRPSGVSSRFSGSKSGNTASLTISGLQAEDQADYHCCSYAGSGTLLFGGGTKLTVL | 66% | 320 rfu | 127% | 867 rfu | 72% | 199000 geometric mean fluorescence | –
4 | BLW-2E6 (antibody, V domains shown, OmniRat hybridoma supernatant: human V regions on rat constant regions; also called V regions cloned as CD3B312 (CD3H219/CD3L124)) VH: QVQLQQSGPRLVRPSQTLSLTCAISGDSVFNNNAAWSWIRQSPSRGLEWLGRTYYRSKWLYDYAVSVKSRITVNPDTSRNQFTLQLNSVTPEDTALYYCARGYSSSFDYWGQGTLVTVSS VL: QSALTQPASVSGSPGQSITISCTGTSSNIGTYKFVSWYQQHPDKAPKVLLYEVSKRPSGVSSRFSGSKSGNTASLTISGLQAEDQADYHCCSYAGSGTLLFGGGTKLTVL | 25% | 121 rfu | 34% | 231 rfu | 3% | 7500 geometric mean fluorescence | –
5 | BLX-1F8 (antibody, V domains shown, OmniRat hybridoma supernatant: human V regions on rat constant regions; also called V regions cloned as CD3B314 (CD3H220/CD3L126)) VH: QVQLQQSGPGLVKPSQTLSLTCAISGDSVFNNNAAWSWIRQSPSRGLEWLGRTYYRSKWLYDYAVSVKSRITVNPDTSRNQFTLQLKSVTPEDTALYYCSRGYSSSFDYWGQGTLVTVSS VL: QSALTQPASVSGSPGQSITISCTGTSSDIGTYKFVSWYQQHPDKAPKVLLYEVSKRPSGVSSRFSGSKSDNTASLTISGLQAEDQADYHCCSYAGSGTLLFGGGTKLTVL | 47% | 230 rfu | 101% | 689 rfu | 53% | 148000 geometric mean fluorescence | –
6 | BLW-2B4 (antibody, V domains shown, OmniRat hybridoma supernatant: human V regions on rat constant regions; also called V regions cloned as CD3B311 (CD3H218/CD3L123)) VH: QVQLQQSGPGLVKPSQTLSLTCAISGDSVFNNNAAWSWIRQSPSRGLEWLGRTYYRSKWLYDYAVSVKSRITVNPDTSRNQFTLQLNSVTPEDTALYYCVRGYSSSFDYWGQGTLVTVSS VL: QSALTQPASVSGSPGQSITISCTGTSRDIGTYKFVSWYQQHPDKAPKVLLYEVNKRPSGVSSRFSGSKSGNTASLTISGLQAEDQADYHCCSYAGSGTLLFGGGTKLTVL | 47% | 230 rfu | 101% | 689 rfu | 53% | 148000 geometric mean fluorescence | –

More lines, main results first:

Row | % positive [6] | Rfu [6] | % positive [7] | Rfu [7] | % positive [8] | geomean [8] | Binder | further results
7 | 66% | 320 rfu | 127% | 867 rfu | 72% | 199000 geometric mean fluorescence | BLX-2E9 (antibody, V domains shown, OmniRat hybridoma supernatant: human V regions on rat constant regions; also called V regions cloned as CD3B315 (CD3H221/CD3L124)) VH: QVQLQQSGPGLVKPSQTLSLTCAISGDSVFNNNGAWSWIRQSPSRGLEWLGRTYYRSKWLYDYAVSVKSRITVNPDTSRNQFTLQLNSVTPEDTALYYCARGYSSSFDYWGQGTLVTVSS VL: QSALTQPASVSGSPGQSITISCTGTSSNIGTYKFVSWYQQHPDKAPKVLLYEVSKRPSGVSSRFSGSKSGNTASLTISGLQAEDQADYHCCSYAGSGTLLFGGGTKLTVL | –
8 | 70% | 340 rfu | 111% | 759 rfu | 77% | 215000 geometric mean fluorescence | BLX-3G8 (antibody, V domains shown, OmniRat hybridoma supernatant: human V regions on rat constant regions; also called V regions cloned as CD3B317 (CD3H223/CD3L124)) VH: QVQLQQSGPGLVKPSQTLSLTCAISGDSVFNNNAAWTWIRQSPSRGLEWLGRTYYRSKWLYDYAVSVKSRITVNPDTSRNQFTLQLKSVTPEDTALYYCSRGYSSSFDYWGQGTLVTVSS VL: QSALTQPASVSGSPGQSITISCTGTSSNIGTYKFVSWYQQHPDKAPKVLLYEVSKRPSGVSSRFSGSKSGNTASLTISGLQAEDQADYHCCSYAGSGTLLFGGGTKLTVL | –
9 | 76% | 371 rfu | 131% | 896 rfu | 66% | 182000 geometric mean fluorescence | BLX-3F4 (antibody, V domains shown, OmniRat hybridoma supernatant: human V regions on rat constant regions; also called V regions cloned as CD3B316 (CD3H222/CD3L124)) VH: QVRLQQSGPGLVKPSQTLSLTCAISGDSVFNNNAAWSWIRQSPSRGLEWLGRTYYRSKWLYDYAVTVKSRITVNPDTSRNQFTLQLTSVTPEDTALYYCARGYSSSFDYWGQGTLVTVSS VL: QSALTQPASVSGSPGQSITISCTGTSSNIGTYKFVSWYQQHPDKAPKVLLYEVSKRPSGVSSRFSGSKSGNTASLTISGLQAEDQADYHCCSYAGSGTLLFGGGTKLTVL | –
